Source: patent US20100317723, “Nucleolin Specific Aptamer and Use thereof” (POSTECH ACADEMY-INDUSTRY FOUDATION, published 2010)

Assays:
[1] = biological target: T1, Nucleolin (cell-surface, human cancer cell lines) (UniProt P19338 P19338:2-710); assay: HeLa cell fluorescence; reference; details: tags: endogenous on HeLa, MDA-MB231, HepG2, AGS, OVCAR-3, U87MG cells (ATCC); label: 5'-Cy3; G4
Method: (§1) To determine the targeting efficiency of the cancers, fluorescence intensities of forty-seven Cy3-labeled BzdU-containing GRO29A and eighteen Cy3-labeled NapdU-containing GRO29A compounds were quantified to evaluate their targeting efficiency at C6 cells by the Varioskan Flash spectral scanning multimode reader (Thermo Fisher Scientific Inc. Waltham, Mass.; excitation: 535 nm, scanning wavelength: 570 nm with a band width: 12 nm). C6 cells were seeded 1×10⁵ cell density onto Magne to FACTION 24 plate (Chemicell, GmbH, Germany) and caring at a 5% CO₂-humidified chamber. […] These cells were collected by PBS (1×) (120 μl) and transferred into 96-well plate (Chemicell, GmbH, Germany) for measurement of fluorescence intensity (100 μl).
(§2) To test functional activity of BzdU-containing GRO29A, the compounds numbers 1642-39, 1642-51 and 1642-19, in other cancer cells, the inventors first extended cancer targeting assay by selecting another cancer cells, HeLa (human cervix cancer cell line, ATCC), and a normal healthy cell line, CHO (chinese hamster ovary cell line, ATCC). The measurement of fluorescence intensity was performed as described above for C6 cells.

[2] = biological target: T2, Nucleolin (cell-surface, C6 rat glioma cells) (UniProt P13383 P13383:1-713); assay: cell fluorescence and confocal on C6 cells, 20 nM, 4 C; reference; details: tags: endogenous on C6 cells (ATCC); label: 5'-Cy3; G4
Method: as §1, with “chamber. After 24 hours of grown, these seeded cells were incubated in DMEM (Dubelocos' modified essential media) with 20 nM of Cy3-labeled GRO29A or AS1411, or 20 nM of each of the Cy3-labeled modified dU-containing GRO29A or AS1411 compounds at for 30 minute at 4° C. for decreasing non-specific binding during 30 min and rinsed by PBS (1×), then replaced to 200 μl Tris buffer, and then treated with each of 47 different compounds (20 pmole).” for “chamber.”, “μl). […]” for “μl).”

[3] = biological target: T2, Nucleolin (cell-surface, C6 rat glioma …); assay: C6 cell fluorescence, about 1.5 fold or more, 20 nM; details: tags: endogenous on C6 cells (ATCC); label: 5'-Cy3; G4
Method: (§3) To determine the targeting efficiency of the cancers, fluorescence intensities of forty-seven Cy3-labeled BzdU-containing GRO29A and eighteen Cy3-labeled NapdU-containing GRO29A compounds were quantified to evaluate their targeting efficiency at C6 cells by the Varioskan Flash spectral scanning multimode reader (Thermo Fisher Scientific Inc. Waltham, Mass.; excitation: 535 nm, scanning wavelength: 570 nm with a band width: 12 nm). C6 cells were seeded 1×10⁵ cell density onto Magne to FACTION 24 plate (Chemicell, GmbH, Germany) and caring at a 5% CO₂-humidified chamber. After 24 hours of grown, these seeded cells were incubated in DMEM (Dubelocos' modified essential media) with 20 nM of Cy3-labeled GRO29A or AS1411, or 20 nM of each of the Cy3-labeled modified dU-containing GRO29A or AS1411 compounds at for 30 minute at 4° C. for decreasing non-specific binding during 30 min and rinsed by PBS (1×), then replaced to 200 μl Tris buffer, and then treated with each of 47 different compounds (20 pmole). Then, seeded cells was washed with PBS (phosphate buffered saline) two times each for 10 min at RT using shaking incubation (30 rpm) to remove the unbound Cy3-labeled modified dU-containing GRO29A or AS1411 compounds, and subjected to trypsinization to detach from the plate surface. These cells were collected by PBS (1×) (120 μl) and transferred into 96-well plate (Chemicell, GmbH, Germany) for measurement of fluorescence intensity (100 μl).

[4] = biological target: T2, Nucleolin (cell-surface, C6 rat glioma …); assay: C6 cell fluorescence, 20 nM; confirmed by confocal; details: tags: endogenous on C6 cells (ATCC); label: 5'-Cy3; G4
Method: as §3, with “Then, seeded cells was washed with PBS (phosphate buffered saline) two times each for 10 min at RT using shaking incubation (30 rpm) to remove the unbound Cy3-labeled modified dU-containing GRO29A or AS1411 compounds, and subjected to trypsinization to detach from the plate surface.” left out, “μl). […]” for “μl).”

[5] = biological target: T1, Nucleolin (cell-surface, human cancer …); assay: HeLa cell fluorescence; details: tags: endogenous on HeLa, MDA-MB231, HepG2, AGS, OVCAR-3, U87MG cells (ATCC); label: 5'-Cy3; G4
Method: as §1, §2

[6] = biological target: T2, Nucleolin (cell-surface, C6 rat glioma …); assay: C6 cell fluorescence, about 1.5 fold or more, 20 nM; confirmed by confocal; details: tags: endogenous on C6 cells (ATCC); label: 5'-Cy3; G4
Method: as §3, with “Then, seeded cells was washed with PBS (phosphate buffered saline) two times each for 10 min at RT using shaking incubation (30 rpm) to remove the unbound Cy3-labeled modified dU-containing GRO29A or AS1411 compounds, and subjected to trypsinization to detach from the plate surface.” left out, “μl). […]” for “μl).”

T2 sequence (P13383 whole entry, one chain of several): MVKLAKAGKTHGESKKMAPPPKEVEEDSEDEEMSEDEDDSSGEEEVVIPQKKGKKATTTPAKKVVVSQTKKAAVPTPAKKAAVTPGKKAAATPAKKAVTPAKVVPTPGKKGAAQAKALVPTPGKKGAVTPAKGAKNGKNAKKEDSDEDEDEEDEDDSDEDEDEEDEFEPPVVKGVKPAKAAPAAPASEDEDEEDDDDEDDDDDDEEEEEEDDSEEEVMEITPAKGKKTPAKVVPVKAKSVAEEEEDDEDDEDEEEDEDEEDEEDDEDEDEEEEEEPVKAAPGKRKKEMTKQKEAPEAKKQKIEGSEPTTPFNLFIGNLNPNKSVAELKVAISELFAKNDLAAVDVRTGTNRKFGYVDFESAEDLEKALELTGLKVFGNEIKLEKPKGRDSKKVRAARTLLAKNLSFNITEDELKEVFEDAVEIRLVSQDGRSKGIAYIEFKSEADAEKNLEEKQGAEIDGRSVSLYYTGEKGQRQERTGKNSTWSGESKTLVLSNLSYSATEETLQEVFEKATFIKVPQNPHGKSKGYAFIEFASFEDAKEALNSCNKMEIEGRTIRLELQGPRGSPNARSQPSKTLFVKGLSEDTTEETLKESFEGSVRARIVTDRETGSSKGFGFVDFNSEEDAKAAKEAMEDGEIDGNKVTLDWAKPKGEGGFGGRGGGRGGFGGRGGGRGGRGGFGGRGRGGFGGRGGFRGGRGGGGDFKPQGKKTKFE
T1 sequence (P19338 2-710, one chain of several): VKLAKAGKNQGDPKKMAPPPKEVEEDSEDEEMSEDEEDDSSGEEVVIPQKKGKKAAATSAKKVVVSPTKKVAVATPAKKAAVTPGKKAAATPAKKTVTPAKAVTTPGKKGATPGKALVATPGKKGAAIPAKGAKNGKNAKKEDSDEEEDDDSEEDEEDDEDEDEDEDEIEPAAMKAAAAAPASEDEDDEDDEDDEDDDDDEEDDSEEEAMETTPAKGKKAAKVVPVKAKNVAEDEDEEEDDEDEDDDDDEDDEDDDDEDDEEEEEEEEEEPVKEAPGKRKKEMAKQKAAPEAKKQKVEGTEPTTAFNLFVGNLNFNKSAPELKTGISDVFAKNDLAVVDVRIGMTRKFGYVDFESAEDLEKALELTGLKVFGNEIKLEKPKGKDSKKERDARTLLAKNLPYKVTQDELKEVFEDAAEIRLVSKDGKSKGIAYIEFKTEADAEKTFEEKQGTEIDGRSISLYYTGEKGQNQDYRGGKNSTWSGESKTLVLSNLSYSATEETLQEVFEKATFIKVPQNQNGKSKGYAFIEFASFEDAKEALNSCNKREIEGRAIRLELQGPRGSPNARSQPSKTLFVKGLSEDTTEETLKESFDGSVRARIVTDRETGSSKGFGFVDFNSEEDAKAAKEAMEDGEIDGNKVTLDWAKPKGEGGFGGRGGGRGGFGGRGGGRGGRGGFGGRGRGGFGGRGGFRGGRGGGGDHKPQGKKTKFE

TTTGGTGGTGGTGGTTGTGGTGGTGGTGG (ssDNA) [GRO29A (Cy3-1641-3)]
binding signal [1]: 1 fold
binding signal [2]: 1 fold

TTTGGTGGTGGTGGTTGTGGTGGTGGTGG (ssDNA, BzdU at T6) [1642-11]
binding signal [3]: ≥ 1.5 fold vs GRO29A

TTTGGTGGTGGTGGTTGTGGTGGTGGTGG (ssDNA, BzdU at T27) [1642-19]
binding signal [4]: ~2.5 fold vs GRO29A
binding signal [5]: ~2.3 fold vs GRO29A

TTTGGTGGTGGTGGTTGTGGTGGTGGTGG (ssDNA, BzdU at T12) [1642-13]
binding signal [3]: ≥ 1.5 fold vs GRO29A

TTTGGTGGTGGTGGTTGTGGTGGTGGTGG (ssDNA, BzdU at T9, T27) [1642-30]
binding signal [3]: ≥ 1.5 fold vs GRO29A

TTTGGTGGTGGTGGTTGTGGTGGTGGTGG (ssDNA, BzdU at T1, T3, T15, T16) [1642-51]
binding signal [6]: ≥ 1.5 fold vs GRO29A

TTTGGTGGTGGTGGTTGTGGTGGTGGTGG (ssDNA, BzdU at T15, T16) [1642-39]
binding signal [6]: ≥ 1.5 fold vs GRO29A

TTTGGTGGTGGTGGTTGTGGTGGTGGTGG (ssDNA, BzdU at T2, T3, T15, T16) [1642-49]
binding signal [3]: ≥ 1.5 fold vs GRO29A
